Experiments:
Experiment in all cases: NMR titration; 1H,15N HSQC of 50 uM 15N-labelled FH domain, unlabelled CR3 added in trans (25 uM or 50 uM); 50 mM NaH2PO4/Na2HPO4 pH 6.5, 0.04% NaN3, 5 mM DTT; 25 C; read-out chemical shift perturbations and line broadening
Conditions in all cases: both partners purified
[1] = target: T1, FOXO1 forkhead (FH) domain, amino acids 143 to 270 (human, UniProt Q12778 143-270)
T1 construct: human FOXO1 (Forkhead box O1), Uniprot Q12778, amino acids 143 to 270, forkhead domain; Uniformly 15N-labelled in the NMR titrations; Cloned into the vector pETM11-ZZ-His6 via NcoI/BamHI; also called FOXO1^FH; FOXO1 FH domain; source: E. coli BL21-DE3 Star, purified (Ni-NTA, TEV cleavage, second Ni-NTA, SEC)
T1 sequence (Q12778 143-270): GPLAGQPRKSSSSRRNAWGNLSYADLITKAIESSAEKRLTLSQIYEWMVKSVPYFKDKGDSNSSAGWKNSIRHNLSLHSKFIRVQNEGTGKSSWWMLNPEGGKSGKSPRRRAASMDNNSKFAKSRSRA

[2] = target: T2, FOXO3 forkhead (FH) domain, amino acids 141 to 260 (human, UniProt O43524 141-260)
T2 construct: human FOXO3 (Forkhead box O3), Uniprot O43524, amino acids 141 to 260, forkhead domain; Uniformly 15N-labelled in the NMR titrations; Cloned into the vector pETM11-ZZ-His6 via NcoI/BamHI; also called FOXO3^FH; FOXO3 FH domain; source: E. coli BL21-DE3 Star, purified (Ni-NTA, TEV cleavage, second Ni-NTA, SEC)
T2 sequence (O43524 141-260): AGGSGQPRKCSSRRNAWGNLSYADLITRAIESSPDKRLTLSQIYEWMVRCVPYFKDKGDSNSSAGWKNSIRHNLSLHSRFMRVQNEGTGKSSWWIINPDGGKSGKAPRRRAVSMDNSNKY

[3] = target: T3, FOXO6 forkhead (FH) domain, amino acids 71 to 191 (human, UniProt A8MYZ6 71-191)
T3 construct: human FOXO6 (Forkhead box O6), Uniprot A8MYZ6, amino acids 71 to 191, forkhead domain; Uniformly 15N-labelled in the NMR titrations; Cloned into the vector pETM11-ZZ-His6 via NcoI/BamHI; also called FOXO6^FH; FOXO6 FH domain; source: E. coli BL21-DE3 Star, purified (Ni-NTA, TEV cleavage, second Ni-NTA, SEC)
T3 sequence (A8MYZ6 71-191): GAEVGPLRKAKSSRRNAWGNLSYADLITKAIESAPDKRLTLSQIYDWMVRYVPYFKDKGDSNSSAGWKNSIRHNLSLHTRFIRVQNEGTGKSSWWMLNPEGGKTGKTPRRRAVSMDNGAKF

Binder	binding result [1]	binding result [2]	binding result [3]
YGRMGLLHQEKLPSDLDGMFIERLDCDMESIIRNDLMDGDTLDFNFDNVL (domain or fragment, human, UniProt Q12778 587-636, looked up, human FOXO1, Uniprot Q12778, amino acids 587 to 636, CR3; Unlabelled in the titrations; also called FOXO1^CR3; CR3 of FOXO1; source: E. coli BL21-DE3 Star, lysed in 6 M urea, purified (Ni-NTA, TEV cleavage, second Ni-NTA, SEC)) [FOXO1 conserved region 3 (CR3, transactivation domain), amino acids 587 to 636]	binds	binds	binds
FOXO6 conserved region 3 (CR3, transactivation domain), amino acids 418 to 472 (domain or fragment, human, UniProt A8MYZ6 418-472, looked up, human FOXO6, Uniprot A8MYZ6, amino acids 418 to 472, CR3; Unlabelled in the titrations; also called FOXO6^CR3; CR3 of FOXO6; source: E. coli BL21-DE3 Star, lysed in 6 M urea, purified (Ni-NTA, TEV cleavage, second Ni-NTA, SEC)) YAAAAAGPLGAAPDRFPADLDLDMFSGSLECDVESIILNDFMDSDEMDFNFDSAL	binds	–	binds

Reference: PMC9097636, “FOXO transcription factors differ in their dynamics and intra/intermolecular interactions” (Current Research in Structural Biology, 2022)
